Results taken from publication PMC8142254, “The mycobacterial proteasomal ATPase Mpa forms a gapped ring to engage the 20S proteasome” (The Journal of Biological Chemistry, 2021).

What was measured:
[1] = biological target: Mycobacterium tuberculosis open-gate 20S proteasome core particle (20SOG CP) (Mycobacterium tuberculosis) (UniProt P9WHU1); assay: negative-stain EM; 2 M equivalents of Mpa hexamer, 3 M equivalents of Pup and 1 M equivalent of 20SOG CP with 3 mM ADP on ice for 40 min; 2D class averages of side views, capped versus uncapped CPs counted
[2] = biological target: Mycobacterium tuberculosis open-gate 20S proteasome core particle (20SOG CP) (Mycobacterium tuberculosis) (UniProt P9WHU1); assay: negative-stain EM; 2 M equivalents of Mpa hexamer, 3 M equivalents of Pup and 1 M equivalent of 20SOG CP with 3 mM ATP on ice for 40 min; 2D class averages of side views, capped versus uncapped CPs counted

Chain of Mycobacterium tuberculosis open-gate 20S proteasome core particle (20SOG CP) (Mycobacterium tuberculosis) (P9WHU1 whole entry, chain 1 of 2): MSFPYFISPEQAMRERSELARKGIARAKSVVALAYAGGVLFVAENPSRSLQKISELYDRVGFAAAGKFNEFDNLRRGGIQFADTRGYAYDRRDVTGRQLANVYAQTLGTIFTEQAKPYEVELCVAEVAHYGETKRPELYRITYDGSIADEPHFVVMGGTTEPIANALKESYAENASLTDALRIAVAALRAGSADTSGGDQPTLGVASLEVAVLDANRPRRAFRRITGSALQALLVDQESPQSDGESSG
Chain of Mycobacterium tuberculosis open-gate 20S proteasome core particle (20SOG CP) (Mycobacterium tuberculosis) (P9WHT9 58-291, chain 2 of 2, further chain): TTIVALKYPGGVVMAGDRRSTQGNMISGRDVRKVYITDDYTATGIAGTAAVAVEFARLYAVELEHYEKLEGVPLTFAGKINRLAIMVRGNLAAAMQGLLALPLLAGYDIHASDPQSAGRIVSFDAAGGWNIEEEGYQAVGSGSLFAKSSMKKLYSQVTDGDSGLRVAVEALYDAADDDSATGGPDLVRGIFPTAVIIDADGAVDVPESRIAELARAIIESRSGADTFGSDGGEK

B1: Mycobacterium tuberculosis proteasomal ATPase Mpa, full-length (1–609) (enzyme)
chain: MGESERSEAFGIPRDSPLSSGDAAELEQLRREAAVLREQLENAVGSHAPTRSARDIHQLEARIDSLAARNSKLMETLKEARQQLLALREEVDRLGQPPSGYGVLLATHDDDTVDVFTSGRKMRLTCSPNIDAASLKKGQTVRLNEALTVVEAGTFEAVGEISTLREILADGHRALVVGHADEERVVWLADPLIAEDLPDGLPEALNDDTRPRKLRPGDSLLVDTKAGYAFERIPKAEVEDLVLEEVPDVSYADIGGLSRQIEQIRDAVELPFLHKELYREYSLRPPKGVLLYGPPGCGKTLIAKAVANSLAKKMAEVRGDDAHEAKSYFLNIKGPELLNKFVGETERHIRLIFQRAREKASEGTPVIVFFDEMDSIFRTRGTGVSSDVETTVVPQLLSEIDGVEGLENVIVIGASNREDMIDPAILRPGRLDVKIKIERPDAEAAQDIYSKYLTEFLPVHADDLAEFDGDRSACIKAMIEKVVDRMYAEIDDNRFLEVTYANGDKEVMYFKDFNSGAMIQNVVDRAKKNAIKSVLETGQPGLRIQHLLDSIVDEFAENEDLPNTTNPDDWARISGKKGERIVYIRTLVTGKSSSASRAIDTESNLGQYL
notes: Mpa (mycobacterial proteasome ATPase), Mycobacterium tuberculosis, full-length, residues 1-609; Homohexamer; In the cryo-EM model the coiled-coil domains and two of the six AAA domains are not resolved; also called mycobacterial proteasome ATPase; WT Mpa
- percent of 20SOG CPs bound to Mpa hexamer [1]: 8%
- percent of 20SOG CPs bound to Mpa hexamer [2]: 37%
